Reference: IntAct's records for PubMed 35512704

B1: Mothers against decapentaplegic homolog 4 (Homo sapiens), Q13485 (parent)
chain: MDNMSITNTPTSNDACLSIVHSLMCHRQGGESETFAKRAIESLVKKLKEKKDELDSLITAITTNGAHPSKCVTIQRTLDGRLQVAGRKGFPHVIYARLWRWPDLHKNELKHVKYCQYAFDLKCDSVCVNPYHYERVVSPGIDLSGLTLQSNAPSSMMVKDEYVHDFEGQPSLSTEGHSIQTIQHPPSNRASTETYSTPALLAPSESNATSTANFPNIPVASTSQPASILGGSHSEGLLQIASGPQPGQQQNGFTGQPATYHHNSTTTWTGSRTAPYTPNLPHHQNGHLQHHPPMPPHPGHYWPVHNELAFQPPISNHPAPEYWCSIAYFEMDVQVGETFKVPSSCPIVTVDGYVDPSGGDRFCLGQLSNVHRTEAIERARLHIGKGVQLECKGEGDVWVRCLSDHAVFVQSYYLDREAGRAPGDAVHKIYPSAYIKVFDLRQCHRQMQQQAATAQAAAAAQAAAVAGNIPGPGSVGGIAPAISLSAAAGIGVDDLRRLCILRMSFVKGWGPDYPRQSIKETPCWIEIHLHRALQLLDEVLHTMPIADPQPLD

Variants of: B1
Conditions: with p85b_human PIK3R2, O00459

Variant	effect of a mutation on the interaction
G386D	with no effect

Variants of: B1
Conditions: with dpod1_human POLD1, P28340
dpod1_human POLD1, P28340, sequence (P28340 whole entry): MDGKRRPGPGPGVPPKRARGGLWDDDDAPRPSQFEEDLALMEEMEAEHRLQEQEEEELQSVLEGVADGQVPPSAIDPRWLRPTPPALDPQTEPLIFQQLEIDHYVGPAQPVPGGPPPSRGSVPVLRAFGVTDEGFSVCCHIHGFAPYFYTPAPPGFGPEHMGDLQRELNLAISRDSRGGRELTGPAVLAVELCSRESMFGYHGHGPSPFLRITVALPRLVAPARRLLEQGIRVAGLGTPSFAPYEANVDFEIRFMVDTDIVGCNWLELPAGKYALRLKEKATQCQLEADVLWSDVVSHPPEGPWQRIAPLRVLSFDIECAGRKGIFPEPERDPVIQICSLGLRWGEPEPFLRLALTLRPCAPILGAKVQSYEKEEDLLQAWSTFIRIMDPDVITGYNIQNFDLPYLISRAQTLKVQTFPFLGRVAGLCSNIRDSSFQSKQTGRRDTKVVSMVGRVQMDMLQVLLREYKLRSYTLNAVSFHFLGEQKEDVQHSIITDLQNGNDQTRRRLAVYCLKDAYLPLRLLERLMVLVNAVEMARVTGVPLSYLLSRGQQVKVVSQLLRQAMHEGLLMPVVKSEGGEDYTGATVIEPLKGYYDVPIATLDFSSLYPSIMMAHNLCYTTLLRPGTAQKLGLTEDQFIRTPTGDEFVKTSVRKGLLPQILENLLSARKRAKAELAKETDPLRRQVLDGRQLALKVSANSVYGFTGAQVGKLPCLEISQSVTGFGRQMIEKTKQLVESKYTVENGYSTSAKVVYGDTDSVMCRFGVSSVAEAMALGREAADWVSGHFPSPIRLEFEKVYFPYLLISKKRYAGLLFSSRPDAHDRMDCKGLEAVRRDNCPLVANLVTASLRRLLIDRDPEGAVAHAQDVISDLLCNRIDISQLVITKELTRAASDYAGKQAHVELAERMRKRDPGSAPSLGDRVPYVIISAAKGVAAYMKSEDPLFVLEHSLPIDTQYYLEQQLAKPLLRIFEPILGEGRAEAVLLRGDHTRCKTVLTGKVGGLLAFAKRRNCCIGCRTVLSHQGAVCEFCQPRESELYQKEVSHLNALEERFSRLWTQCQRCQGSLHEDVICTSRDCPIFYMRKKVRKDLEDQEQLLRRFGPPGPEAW

Variant	effect of a mutation on the interaction
G386D	with no effect

Variants of: B1
Conditions: with dpoe1_human POLE

Variant	effect of a mutation on the interaction
G386D	with no effect

Variants of: B1
Conditions: with 2aaa_human PPP2R1A

Variant	effect of a mutation on the interaction
G386D	with no effect

Variants of: B1
Conditions: with prdm1_human PRDM1, O75626
prdm1_human PRDM1, O75626, sequence (O75626 whole entry): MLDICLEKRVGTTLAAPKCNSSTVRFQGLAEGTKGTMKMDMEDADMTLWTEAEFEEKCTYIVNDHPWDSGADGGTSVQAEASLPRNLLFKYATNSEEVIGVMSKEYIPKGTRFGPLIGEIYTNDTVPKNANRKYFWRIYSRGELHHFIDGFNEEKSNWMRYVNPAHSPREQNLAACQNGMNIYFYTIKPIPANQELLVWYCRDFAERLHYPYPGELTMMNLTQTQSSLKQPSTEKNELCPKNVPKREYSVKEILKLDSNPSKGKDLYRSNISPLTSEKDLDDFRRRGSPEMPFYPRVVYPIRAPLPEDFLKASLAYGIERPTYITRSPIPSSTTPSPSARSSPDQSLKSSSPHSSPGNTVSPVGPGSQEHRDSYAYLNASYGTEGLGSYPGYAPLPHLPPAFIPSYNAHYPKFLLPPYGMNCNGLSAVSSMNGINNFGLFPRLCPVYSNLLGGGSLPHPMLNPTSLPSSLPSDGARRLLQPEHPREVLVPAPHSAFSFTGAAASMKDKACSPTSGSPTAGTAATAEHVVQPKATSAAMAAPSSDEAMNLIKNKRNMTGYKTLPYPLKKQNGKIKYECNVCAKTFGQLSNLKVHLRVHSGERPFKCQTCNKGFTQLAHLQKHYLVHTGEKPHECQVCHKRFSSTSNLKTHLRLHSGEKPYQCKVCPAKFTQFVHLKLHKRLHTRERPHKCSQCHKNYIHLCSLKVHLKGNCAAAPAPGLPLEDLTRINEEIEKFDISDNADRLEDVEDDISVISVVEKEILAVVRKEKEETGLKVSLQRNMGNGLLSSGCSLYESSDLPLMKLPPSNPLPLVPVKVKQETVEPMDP

Variant	effect of a mutation on the interaction
G386D	with no effect

Variants of: B1
Conditions: with aapk2_human PRKAA2, P54646

Variant	effect of a mutation on the interaction
G386D	with no effect

Variants of: B1
Conditions: with aakb2_human PRKAB2, O43741

Variant	effect of a mutation on the interaction
G386D	with no effect

Variants of: B1
Conditions: with prss8_human PRSS8, Q16651

Variant	effect of a mutation on the interaction
G386D	with no effect

Variants of: B1
Conditions: with ptk6_human PTK6, Q13882

Variant	effect of a mutation on the interaction
G386D	with no effect

Variants of: B1
Conditions: with tf65_human RELA

Variant	effect of a mutation on the interaction
G386D	with no effect

Variants of: B1
Conditions: with rheb_human RHEB

Variant	effect of a mutation on the interaction
G386D	with no effect

Variants of: B1
Conditions: with rictr_human RICTOR

Variant	effect of a mutation on the interaction
G386D	with no effect

Variants of: B1
Conditions: with rnf43_human RNF43, Q68DV7

Variant	effect of a mutation on the interaction
G386D	with no effect

Variants of: B1
Conditions: with ros1_human ROS1, P08922

Variant	effect of a mutation on the interaction
G386D	with no effect

Variants of: B1
Conditions: with rl5_human RPL5, P46777

Variant	effect of a mutation on the interaction
G386D	with no effect

Variants of: B1
Conditions: with ks6b1_human RPS6KB1, P23443

Variant	effect of a mutation on the interaction
G386D	with no effect

Variants of: B1
Conditions: with rptor_human RPTOR

Variant	effect of a mutation on the interaction
G386D	with no effect

Variants of: B1
Conditions: with runx1_human RUNX1, Q01196

Variant	effect of a mutation on the interaction
G386D	with no effect

Variants of: B1
Conditions: with ruvb1_human RUVBL1, Q9Y265

Variant	effect of a mutation on the interaction
G386D	with no effect

Variants of: B1
Conditions: with sdha_human SDHA

Variant	effect of a mutation on the interaction
G386D	with no effect

Variants of: B1
Conditions: with setb1_human SETDB1, Q15047

Variant	effect of a mutation on the interaction
G386D	with no effect

Variants of: B1
Conditions: with skp2_human SKP2, Q13309
skp2_human SKP2, Q13309, sequence (Q13309 whole entry): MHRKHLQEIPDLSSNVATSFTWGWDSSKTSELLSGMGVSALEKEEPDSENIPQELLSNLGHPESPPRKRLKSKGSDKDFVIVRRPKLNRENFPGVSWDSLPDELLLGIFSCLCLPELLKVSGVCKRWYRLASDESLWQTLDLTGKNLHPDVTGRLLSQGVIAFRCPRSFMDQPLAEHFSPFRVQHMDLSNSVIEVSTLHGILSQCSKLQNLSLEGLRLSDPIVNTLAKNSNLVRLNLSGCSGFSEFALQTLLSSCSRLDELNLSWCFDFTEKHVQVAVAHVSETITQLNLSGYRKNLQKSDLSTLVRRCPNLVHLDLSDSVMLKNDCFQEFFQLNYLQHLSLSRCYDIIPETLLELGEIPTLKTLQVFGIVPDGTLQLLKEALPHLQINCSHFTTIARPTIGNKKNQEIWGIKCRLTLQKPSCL

Variant	effect of a mutation on the interaction
G386D	with no effect

Variants of: B1
Conditions: with smad1_human SMAD1, Q15797

Variant	effect of a mutation on the interaction
G386D	with no effect

Variants of: B1
Conditions: with smad2_human SMAD2, Q15796

Variant	effect of a mutation on the interaction
G386D	with no effect

Variants of: B1
Conditions: with smad3_human SMAD3, P84022
smad3_human SMAD3, P84022, sequence (P84022 whole entry, looked up): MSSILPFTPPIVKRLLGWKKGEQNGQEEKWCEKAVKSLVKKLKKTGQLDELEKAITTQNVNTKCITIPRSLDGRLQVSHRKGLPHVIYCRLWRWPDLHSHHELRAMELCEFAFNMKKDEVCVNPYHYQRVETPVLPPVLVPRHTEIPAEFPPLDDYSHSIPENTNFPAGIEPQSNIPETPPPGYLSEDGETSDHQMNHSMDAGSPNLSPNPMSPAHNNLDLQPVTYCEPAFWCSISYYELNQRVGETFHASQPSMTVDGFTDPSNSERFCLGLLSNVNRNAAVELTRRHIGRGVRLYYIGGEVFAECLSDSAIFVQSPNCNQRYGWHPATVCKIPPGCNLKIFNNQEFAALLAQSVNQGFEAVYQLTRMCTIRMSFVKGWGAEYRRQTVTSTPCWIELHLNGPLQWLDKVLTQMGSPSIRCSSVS

Variant	effect of a mutation on the interaction
G386D	with no effect

Variants of: B1
Conditions: with smca4_human SMARCA4, P51532
smca4_human SMARCA4, P51532, sequence (P51532 whole entry): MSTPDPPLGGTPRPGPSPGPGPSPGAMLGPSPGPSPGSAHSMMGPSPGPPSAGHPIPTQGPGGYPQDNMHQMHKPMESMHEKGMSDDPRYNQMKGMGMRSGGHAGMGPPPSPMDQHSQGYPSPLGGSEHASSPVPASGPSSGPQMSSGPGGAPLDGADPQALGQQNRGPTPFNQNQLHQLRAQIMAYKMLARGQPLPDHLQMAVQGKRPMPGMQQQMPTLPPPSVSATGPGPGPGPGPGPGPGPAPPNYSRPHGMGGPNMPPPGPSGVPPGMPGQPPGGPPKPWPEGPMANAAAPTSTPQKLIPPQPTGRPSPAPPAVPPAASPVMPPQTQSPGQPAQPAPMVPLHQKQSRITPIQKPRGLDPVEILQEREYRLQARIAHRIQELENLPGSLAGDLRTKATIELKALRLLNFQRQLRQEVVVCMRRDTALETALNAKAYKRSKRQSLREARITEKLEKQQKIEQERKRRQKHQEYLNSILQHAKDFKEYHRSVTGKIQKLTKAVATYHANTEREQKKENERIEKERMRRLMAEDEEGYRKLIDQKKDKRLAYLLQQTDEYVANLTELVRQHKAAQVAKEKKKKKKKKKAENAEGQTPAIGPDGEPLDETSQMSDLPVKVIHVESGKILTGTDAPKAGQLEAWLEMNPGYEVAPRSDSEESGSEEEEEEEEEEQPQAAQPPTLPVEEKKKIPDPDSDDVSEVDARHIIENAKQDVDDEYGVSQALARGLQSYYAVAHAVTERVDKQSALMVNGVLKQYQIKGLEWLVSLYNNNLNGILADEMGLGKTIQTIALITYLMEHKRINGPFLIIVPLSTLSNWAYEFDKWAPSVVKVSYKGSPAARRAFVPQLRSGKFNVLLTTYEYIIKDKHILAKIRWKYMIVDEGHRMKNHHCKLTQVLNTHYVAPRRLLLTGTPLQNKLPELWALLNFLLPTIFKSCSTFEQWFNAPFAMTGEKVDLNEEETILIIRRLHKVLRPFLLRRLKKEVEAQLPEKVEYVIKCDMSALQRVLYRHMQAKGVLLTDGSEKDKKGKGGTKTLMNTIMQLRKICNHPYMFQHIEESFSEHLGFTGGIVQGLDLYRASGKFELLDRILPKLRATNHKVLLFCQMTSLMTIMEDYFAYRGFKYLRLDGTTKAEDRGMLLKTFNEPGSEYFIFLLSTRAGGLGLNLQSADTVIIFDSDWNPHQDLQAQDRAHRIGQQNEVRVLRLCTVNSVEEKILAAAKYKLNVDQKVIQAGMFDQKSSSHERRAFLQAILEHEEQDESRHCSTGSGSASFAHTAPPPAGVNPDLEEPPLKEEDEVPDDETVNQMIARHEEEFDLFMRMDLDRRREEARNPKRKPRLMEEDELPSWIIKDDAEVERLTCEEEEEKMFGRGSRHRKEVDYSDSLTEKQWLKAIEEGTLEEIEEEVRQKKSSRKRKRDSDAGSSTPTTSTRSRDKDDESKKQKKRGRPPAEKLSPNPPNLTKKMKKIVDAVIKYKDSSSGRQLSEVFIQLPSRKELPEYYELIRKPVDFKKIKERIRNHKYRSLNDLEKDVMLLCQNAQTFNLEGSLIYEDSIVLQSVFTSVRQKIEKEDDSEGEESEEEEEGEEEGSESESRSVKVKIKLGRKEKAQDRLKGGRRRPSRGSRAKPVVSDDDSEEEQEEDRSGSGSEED

Variant	effect of a mutation on the interaction
G386D	with no effect

Variants of: B1
Conditions: with snf5_human SMARCB1, Q12824
snf5_human SMARCB1, Q12824, sequence (Q12824 whole entry): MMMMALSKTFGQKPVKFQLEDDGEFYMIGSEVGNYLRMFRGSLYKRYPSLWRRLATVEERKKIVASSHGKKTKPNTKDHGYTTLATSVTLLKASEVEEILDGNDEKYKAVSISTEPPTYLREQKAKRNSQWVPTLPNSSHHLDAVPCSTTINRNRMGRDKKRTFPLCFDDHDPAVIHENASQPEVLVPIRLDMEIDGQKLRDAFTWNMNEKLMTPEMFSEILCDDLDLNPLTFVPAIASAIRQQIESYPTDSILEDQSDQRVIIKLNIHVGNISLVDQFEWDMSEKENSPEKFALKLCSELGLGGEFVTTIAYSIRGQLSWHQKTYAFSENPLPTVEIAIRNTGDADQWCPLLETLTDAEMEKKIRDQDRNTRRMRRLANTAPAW

Variant	effect of a mutation on the interaction
G386D	with no effect

Variants of: B1
Conditions: with smo_human SMO

Variant	effect of a mutation on the interaction
G386D	with no effect

Variants of: B1
Conditions: with socs1_human SOCS1, O15524
socs1_human SOCS1, O15524, sequence (O15524 whole entry): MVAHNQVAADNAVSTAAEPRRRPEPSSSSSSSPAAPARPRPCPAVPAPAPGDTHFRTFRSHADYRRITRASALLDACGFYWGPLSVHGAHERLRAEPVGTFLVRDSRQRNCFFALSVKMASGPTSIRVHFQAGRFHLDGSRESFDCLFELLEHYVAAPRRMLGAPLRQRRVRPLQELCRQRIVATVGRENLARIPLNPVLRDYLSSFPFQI

Variant	effect of a mutation on the interaction
G386D	with no effect

Variants of: B1
Conditions: with sox10_human SOX10, P56693

Variant	effect of a mutation on the interaction
G386D	with no effect

Variants of: B1
Conditions: with sox2_human SOX2, P48431

Variant	effect of a mutation on the interaction
G386D	with no effect

Variants of: B1
Conditions: with sox3_human SOX3, P41225

Variant	effect of a mutation on the interaction
G386D	with no effect

Variants of: B1
Conditions: with sox4_human SOX4, Q06945

Variant	effect of a mutation on the interaction
G386D	with no effect

Variants of: B1
Conditions: with sox9_human SOX9, P48436

Variant	effect of a mutation on the interaction
G386D	with no effect

Variants of: B1
Conditions: with spop_human SPOP

Variant	effect of a mutation on the interaction
G386D	with no effect

Variants of: B1
Conditions: with src_human SRC

Variant	effect of a mutation on the interaction
G386D	with no effect

Variants of: B1
Conditions: with stat3_human STAT3, P40763

Variant	effect of a mutation on the interaction
G386D	with no effect

Variants of: B1
Conditions: with stk38_human STK38, Q15208

Variant	effect of a mutation on the interaction
G386D	with no effect

Variants of: B1
Conditions: with ksyk_human SYK

Variant	effect of a mutation on the interaction
G386D	with no effect

Variants of: B1
Conditions: with eloc_human ELOC

Variant	effect of a mutation on the interaction
G386D	with no effect
